The values that follow come from publication PMC3945225, “RBPJ, the Major Transcriptional Effector of Notch Signaling, Remains Associated with Chromatin throughout Mitosis, Suggesting a Role in Mitotic Bookmarking”.

This data set deals with Flag-RBPJ (mouse, UniProt P31266-2 1-487). Briefly: EMSA; 1 nM DNA; 12 mM Hepes pH 7.9, 10 mM Tris-HCl pH 7.5, 60 mM KCl, 8% glycerol, 4 mM MgCl2, 0.02% NP40, 30 C; 5% PAGE 0.5x TBE. The following applies: protein: recombinant; tags: Flag; label: 32P (T4 PNK); blunt.
Flag-RBPJ, sequence (P31266 other isoform, or with tags, fused parts or gaps): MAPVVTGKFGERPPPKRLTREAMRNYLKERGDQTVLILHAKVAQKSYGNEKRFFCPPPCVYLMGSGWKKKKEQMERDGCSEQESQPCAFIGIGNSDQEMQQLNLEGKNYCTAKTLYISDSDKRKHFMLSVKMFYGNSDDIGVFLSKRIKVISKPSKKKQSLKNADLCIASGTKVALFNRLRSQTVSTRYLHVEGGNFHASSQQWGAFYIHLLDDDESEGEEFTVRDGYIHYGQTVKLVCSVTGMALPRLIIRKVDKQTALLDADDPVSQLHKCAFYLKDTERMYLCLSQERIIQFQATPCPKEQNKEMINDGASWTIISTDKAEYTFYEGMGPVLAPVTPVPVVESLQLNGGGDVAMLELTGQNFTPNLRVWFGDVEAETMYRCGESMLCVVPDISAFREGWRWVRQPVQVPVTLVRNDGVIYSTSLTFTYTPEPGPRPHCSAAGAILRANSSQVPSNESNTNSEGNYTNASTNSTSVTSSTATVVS

B1: 16 bp RBPJ motif DNA (dsDNA)
DNA 1: CACTGGGAACCTACCC
DNA 2: GGGTAGGTTCCCAGTG
Turning to B1, the binding result was “binds”.
